The text below walks through data of patent US11530263B2, “IL-18 binding protein (IL-18BP) in inflammatory diseases” (AB2 BIO SA, priority 2013, dated 2022).

For data set [1], the target named is T1, IL-18 (Homo sapiens, UniProt Q14116).
T1 sequence (Q14116 37-193): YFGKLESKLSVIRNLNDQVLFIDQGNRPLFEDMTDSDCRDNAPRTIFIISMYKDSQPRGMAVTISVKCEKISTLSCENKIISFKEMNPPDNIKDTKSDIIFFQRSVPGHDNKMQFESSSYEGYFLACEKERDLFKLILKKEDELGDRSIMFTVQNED
In words: KD calculation by titration with free IL-18 ELISA (IL-18BP capture). In kind it is binding. As to conditions: read-out: KD between human IL-18 and IL-18BP by titration. As for the experimental part: Microplate wells are coated with an appropriate volume phosphate buffer saline solution containing recombinant human IL-18BP. Plates are incubated for a period of time at 4° C. and then stabilized with a blocking buffer containing bovine serum albumin or other appropriate blocking agents. Once the reaction is finished, microplates are sealed and stored at 4° C. until used for detection of free IL-18. Microplates can also be dried in a stabilizing solution allowing storage at room temperature and then be reconstituted by hydration when needed for assay.
As an example, for a final reaction volume of 100 μl, dispense first 80 μl of biotin/antibody conjugate. Samples or biological fluids containing free IL-18 are tested with the IL-18BP coated microplates. After that, 20 μl sample volume containing biological fluid or standard is dispensed per microplate well. Non-diluted or diluted biological fluid can be but is not restricted to serum, urine, tear, saliva, bile, sweat, exhalation or expiration, sputum, bronchoalveolar fluid, sebum, cellular, gland, mucosa or tissue secretion, biopsy, homogenized tissue. […] The resulting reactions are then monitored with a microplate reader at an appropriate nanometer wavelength for absorbance or fluorescence of the produced reagent. […]
KD was calculated based on the following formula: KD=[free IL-18]×[free IL-18BP]/[IL-18/IL-18BP complex] […]

A further data set relates to G-CSF. In words: Exacerbation/tobacco smoke mouse model: G-CSF in BALF by ELISA. The following applies: three tested doses 1, 3, 10 mg/kg s.c., day 5, FIG. 9. In kind it is in vivo, C57BL/6J mice. As for the experimental part: (§1) The aim of the study was to determine the effect of IL-18BP, administered at three dose levels, by the sub-cutaneous route, on Polyinosinic:polycytidylic acid-induced exacerbation of tobacco-smoke induced pulmonary inflammation, in C57BL/6J mice. High level of dexamethasone, dosed orally, was included in the study as a reference agent.
Mice received either vehicle (PBS) or IL-18BP. IL-18BP was given subcutaneously to 3 groups of animals respectively at 1, 3 or 10 mg/kg 2 h prior to the initial tobacco smoke exposure from Day 1 to Day 4. Mice received orally either vehicle or dexamethasone (10 mg/kg) 1 h prior to each twice daily exposure. Mice received by intranasal administration either the vehicle or Polyinosinic:polycytidylic acid (2 mg/kg) 2 h prior to the initial air or tobacco smoke exposure on Day 4 to induce lung inflammation exacerbation. […]
Following the above treatments, animals were terminally anaesthetised on Day 5. […] Cells recovered from the BALF were counted using the Sysmex cell counter.
G-CSF is well acknowledged as key cytokine stimulating the survival, proliferation, differentiation, and function of neutrophil precursors and mature neutrophils. […] The presence of G-CSF in the BALF was monitored with a commercially available ELISA kit.
A general note: An ELISA detects its analyte on a solid surface through an enzyme-linked reagent.

The subject of data set [2] is total cell infiltration in the lung airway space. Briefly: Exacerbation/tobacco smoke mouse model: total cell infiltration in lung airway space (BALF). In kind it is in vivo, C57BL/6J mice. The procedure: as §1
(§2) Mice received either vehicle (PBS) or IL-18BP. IL-18BP was given subcutaneously to 3 groups of animals respectively at 1, 3 or 10 mg/kg 2 h prior to the initial tobacco smoke exposure from Day 1 to Day 4. Mice received orally either vehicle or dexamethasone (10 mg/kg) 1 h prior to each twice daily exposure. Mice received by intranasal administration either the vehicle or Polyinosinic:polycytidylic acid (2 mg/kg) 2 h prior to the initial air or tobacco smoke exposure on Day 4 to induce lung inflammation exacerbation. Tobacco smoke exposure was performed during the morning and afternoon as follow: Day 1 for 15 min, Day 2 for 25 min, Day 3 for 30 min and Day 4 for 30 min.
(§3) Following the above treatments, animals were terminally anaesthetised on Day 5. After that, a blood sample was taken via the sub-clavian artery (plasma) and the animals were bronchoalveloar lavaged with 3×0.4 ml of PBS for further cellular and cytokine/mediator analysis. […] Cells recovered from the BALF were counted using the Sysmex cell counter.

Data set [3] can be described thus: Exacerbation/tobacco smoke mouse model: weight loss and tolerability. In kind it is in vivo, C57BL/6J mice. The procedure:
as §1, §2
As an example, weight loss was mitigated by IL-18BP even though both Students t-test and ANOVA statistical analyses were not significant (see FIG. 10). A large majority of mice receiving 3 and 10 mg/kg IL-18BP lost respectively 6-7% weight in contrast to the control exposed to tobacco smoke and p[I:C] that lost about 9%.

In data set [4] the test system is neutrophil infiltration in the lung airway space. Briefly: Exacerbation/tobacco smoke mouse model: neutrophil infiltration in lung airway space. In kind it is in vivo, C57BL/6J mice. The procedure:
as §1, §2, §3

In data set [5] the target is T1, IL-18. The following applies: cited from earlier work.
For data set [6], the target named is T1, IL-18. Briefly: New BIAcore setup: IL-18BP bound to chip, affinity to IL-18. In kind it is binding. The following applies: IL-18BP on BIAcore chip. The text has this: Following the above KD results obtain by titration, we tested the binding affinity of IL-18BP to IL-18 with a simpler BIAcore setup consisting of binding IL-18BP to the BIAcore chip and then testing its affinity to IL-18. The method setup is the contrary of Kim et al 2000^8, who bound IL-18 to the BIAcore chip with a monoclonal antibody and then tested the affinity of the complex antibody-IL-18 to IL-18BP.
(In SPR one partner is held on a chip, and binding of the other changes the refractive index at the surface.)

Data set [7] deals with T1, IL-18. In words: Titration of free IL-18 as a function of IL-18BP level (free IL-18 ELISA). In kind it is binding. The following applies: 400 pg/mL IL-18 in PBS with 5% BSA. The procedure: A constant quantity of recombinant IL-18 was titrated as a function of different and well defined quantities of IL-18BP in order to understand when free IL-18 is not any more detectable. A PBS solution of 400 pg/mL IL-18 supplemented by 5% BSA was spiked with defined quantities of IL-18BP ranging from 0 to 10′000 pg/mL. The molar ratios were calculated according to the respective molecular weight of IL-18 and IL-18BP. The free IL-18 detection was performed with ELISA using IL-18BP for IL-18 as described above. […] In contrast, when molar ratio is lower than 15, free IL-18 is easily detectable.

Read-outs that look alike come from different tables or passages of the source. Some results are limits rather than exact numbers.

B1: IL-18BP: IL-18 Binding Protein, naturally occurring IL-18 antagonist, as shown in SEQ ID NO: 7 (protein)
chain: TPVSQTTTAATASVRSTKDPCPSQPPVFPAAKQCPALEVTWPEVEVPLNGTLSLSCVACSRFPNFSILYWLGNGSFIEHLPGRLWEGSTSRERGSTGTQLCKALVLEQLTPALHSTNFSCVLVDPEQVVQRHVVLAQLWAGLRATLPPTQEALPSSHSSPQQQG
modifications: IL-18 binding protein
In the case of B1, the Kd is 0.035 nM in the data set with IL-18 [1] (PBS supplemented by 5% BSA diluent); 0.05 nM in the data set with IL-18 [1] (serum diluent (healthy volunteer sera depleted in endogenous IL-18BP)); 0.4 nM with IL-18 [5] (BIAcore, literature, read-out: KD reported in the literature (Kim et al 2000)); 0.4 nM with IL-18 [5] (used in Law of Mass Action calculation, read-out: Dissociation constant as calculated by Kim et al 2000). Besides, the “Mitigation of G-CSF release in the lung airways” value with G-CSF is reported as “statistically relevant effect”. Further, in data set [2] (10 mg/kg s.c., day 5, FIG. 6), the “Exacerbated inflammation inhibition (total cell infiltration)” value was “clear and statistically relevant efficacy”. In addition, in data set [2] (3 and 10 mg/kg s.c., day 5, compared to dexamethasone, FIG. 5), the “Mitigation of total cell infiltration in the lung” value was “statistically valuable efficacy”. Also, the Weight loss in data set [3] (3 and 10 mg/kg s.c., large majority of mice, day 5) was 6-7%. Further, the Tolerability entry in data set [3] (exacerbation/tobacco smoke mouse model) is recorded as “well tolerated”. Besides, the “Inhibition of neutrophil infiltration” value in data set [4] (10 mg/kg s.c., day 5, FIG. 8) is listed as “best statistical efficacy”; in data set [4] (3 and 10 mg/kg s.c., day 5, FIG. 7) it was “statistically valuable efficacy”. Further, the Ka with IL-18 [6] is 5.3 ± 1.2 10^+5/Ms. For the same molecule, in the data set with IL-18 [7], the “IL-18BP concentration at which 400 pg/mL IL-18 detection is near background” value was not below 6000 pg/mL.
